Results as given in paper PMC9140564 (International Journal of Molecular Sciences, 2022).

Columns and labels:
[1] = target: T1, recombinant pre-S region protein of the HBV large surface protein (LHBS) (Hepatitis B virus, strain ; …, UniProt P03141); experiment: ELISA; antigen protein or peptide coated on the plate (0.1 ng/uL, or 10-fold serial dilutions), 4 °C overnight; purified monoclonal antibody added (serial dilutions or 1:2000 in PBST); PBST pH 7.4 washes; anti-mouse IgG-HRP, chemiluminescence read-out; details: both partners purified
T1 construct: also called pre-S region E. coli recombinant protein; source: E. coli BL21 (pET21b, IPTG 0.2 mM), purified

[2] = target: T2, pre-S1 oligopeptide of amino acids 25-38 (Hepatitis B virus, strain  …); experiment: as above; details: both partners purified
T2 construct: pre-S1 region of the hepatitis B virus large surface protein, amino acids 25-38; One of several oligopeptides spanning pre-S1 21-47; also called peptide containing amino acids 25–38; source: synthetic peptide
T2 chain: FPDHQLDPAFGANS

[3] = target: T3, large HBV surface protein (LHBS), full-length, expressed in 293T cells (Hepatitis B virus, strain ; …, UniProt P03141); experiment: ELISA; lysates of 293T cells transfected with LHBS genes with partial deletions, tested for recognition by the monoclonal antibody; details: one partner purified
T3 construct: hepatitis B virus large surface protein: pre-S1 (119 a.a.), pre-S2 (55 a.a.) and S (227 a.a.) regions as printed; also called the full-length; source: 293T cells, transfected, in lysate
T3 sequence (P03141 whole entry): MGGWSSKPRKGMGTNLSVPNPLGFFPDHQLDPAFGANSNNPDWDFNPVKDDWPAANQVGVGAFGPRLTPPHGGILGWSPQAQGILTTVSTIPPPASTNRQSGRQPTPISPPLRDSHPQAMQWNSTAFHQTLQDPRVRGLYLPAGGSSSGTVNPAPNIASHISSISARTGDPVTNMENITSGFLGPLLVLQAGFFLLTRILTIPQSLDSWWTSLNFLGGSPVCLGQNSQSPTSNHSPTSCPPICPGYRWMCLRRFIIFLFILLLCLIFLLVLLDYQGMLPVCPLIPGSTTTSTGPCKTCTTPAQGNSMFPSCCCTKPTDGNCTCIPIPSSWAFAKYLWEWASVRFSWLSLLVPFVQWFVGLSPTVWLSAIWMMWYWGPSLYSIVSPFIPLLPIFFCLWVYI

T1 sequence (P03141 whole entry, looked up): as the sequence (P03141 whole entry) above

B1: anti-pre-S1 mouse monoclonal antibody (clone N-term-7-21-5) (antibody, V domains shown)
VH: DVQLQESGPGLVKPSQSLSLTCTVTGYSITSDYAWNWIRQFPGNKLEWMGYIRYSGTTNYNPSLKSRISITRDTSKNQFFLQLNSVTTEDTATYYCARGGTGLTYWGQGTLVTVSA
VL: NIVMTQSPKSMSMSLGERVTLTCKASENVGTYVSWYQQKPEQSPKLLIYGASNRNTGVPDRFTGSGPATDFTLTISSVQAEDLADYLCGQTYNYPFTFGAGTKLELK
notes: heavy chain CDR1; heavy chain CDR2; heavy chain CDR3; kappa light chain CDR1; kappa light chain CDR2; kappa light chain CDR3; Only the six CDRs are printed; Coating antibody of the sandwich ELISA; also called pre-S1 antibody; LHBS-specific antibody; source: mouse hybridoma, ascites fluid, purified using IgG beads
- binding result [1]: binds
- binding result [2]: binds

B2: anti-pre-S2 mouse monoclonal antibody (antibody, V domains shown)
VH: QVQLQQPGTELVKPGTSVKLSCKASGYTFTSYWMHWVKLRPGQGFEWIGEINPSNGITNYNEKFKRKATLTVDKSSTTAYMQLSSLTFEDSAVYYCTIGYDYGSNYEAMDFWGQGTSVTVSS
VL: DIVMTQAAFSNPVTLGTSASMSCRSSKSLLHSNGITYLYWYLQKPGQSPQLLIYQMSNLASGVPDRFSSGGSGTDFTLRISRVEAEDVGVYYCAQNLELPWTFGGGTKLEIK
notes: heavy chain CDR1; heavy chain CDR2; heavy chain CDR3; kappa light chain CDR1; kappa light chain CDR2; kappa light chain CDR3; Only the six CDRs are printed; Aliquots were conjugated with biotin for use as detection antibody in the sandwich ELISA; also called pre-S2 antibody; anti-pre-S2 region antibody; source: mouse hybridoma, ascites fluid, purified using IgG beads
- binding result [3]: binds
- binding result [1]: binds
